Experimental data reported in article PMC6760808.
Read-outs that look alike come from different tables or passages of the source.

Legend:
Cer-NPHP4-YC [1] = target: Cer-NPHP4-YC (UniProt O75161); assay: split reporter (BiFC, NanoBiT); BiFC: Cer-NPHP-YC co-expressed with YN-myc-Nup in NIH 3T3 cells in serum-free medium; fixed 48 hours post-transfection; YFP fluorescence at the base of the primary cilium, cells counted across two independent experiments
Cer-NPHP4-YC [2] = target: Cer-NPHP4-YC (UniProt O75161); assay: as above; remark: listed apart in the source

Chain of UniProt O75161 (O75161 whole entry): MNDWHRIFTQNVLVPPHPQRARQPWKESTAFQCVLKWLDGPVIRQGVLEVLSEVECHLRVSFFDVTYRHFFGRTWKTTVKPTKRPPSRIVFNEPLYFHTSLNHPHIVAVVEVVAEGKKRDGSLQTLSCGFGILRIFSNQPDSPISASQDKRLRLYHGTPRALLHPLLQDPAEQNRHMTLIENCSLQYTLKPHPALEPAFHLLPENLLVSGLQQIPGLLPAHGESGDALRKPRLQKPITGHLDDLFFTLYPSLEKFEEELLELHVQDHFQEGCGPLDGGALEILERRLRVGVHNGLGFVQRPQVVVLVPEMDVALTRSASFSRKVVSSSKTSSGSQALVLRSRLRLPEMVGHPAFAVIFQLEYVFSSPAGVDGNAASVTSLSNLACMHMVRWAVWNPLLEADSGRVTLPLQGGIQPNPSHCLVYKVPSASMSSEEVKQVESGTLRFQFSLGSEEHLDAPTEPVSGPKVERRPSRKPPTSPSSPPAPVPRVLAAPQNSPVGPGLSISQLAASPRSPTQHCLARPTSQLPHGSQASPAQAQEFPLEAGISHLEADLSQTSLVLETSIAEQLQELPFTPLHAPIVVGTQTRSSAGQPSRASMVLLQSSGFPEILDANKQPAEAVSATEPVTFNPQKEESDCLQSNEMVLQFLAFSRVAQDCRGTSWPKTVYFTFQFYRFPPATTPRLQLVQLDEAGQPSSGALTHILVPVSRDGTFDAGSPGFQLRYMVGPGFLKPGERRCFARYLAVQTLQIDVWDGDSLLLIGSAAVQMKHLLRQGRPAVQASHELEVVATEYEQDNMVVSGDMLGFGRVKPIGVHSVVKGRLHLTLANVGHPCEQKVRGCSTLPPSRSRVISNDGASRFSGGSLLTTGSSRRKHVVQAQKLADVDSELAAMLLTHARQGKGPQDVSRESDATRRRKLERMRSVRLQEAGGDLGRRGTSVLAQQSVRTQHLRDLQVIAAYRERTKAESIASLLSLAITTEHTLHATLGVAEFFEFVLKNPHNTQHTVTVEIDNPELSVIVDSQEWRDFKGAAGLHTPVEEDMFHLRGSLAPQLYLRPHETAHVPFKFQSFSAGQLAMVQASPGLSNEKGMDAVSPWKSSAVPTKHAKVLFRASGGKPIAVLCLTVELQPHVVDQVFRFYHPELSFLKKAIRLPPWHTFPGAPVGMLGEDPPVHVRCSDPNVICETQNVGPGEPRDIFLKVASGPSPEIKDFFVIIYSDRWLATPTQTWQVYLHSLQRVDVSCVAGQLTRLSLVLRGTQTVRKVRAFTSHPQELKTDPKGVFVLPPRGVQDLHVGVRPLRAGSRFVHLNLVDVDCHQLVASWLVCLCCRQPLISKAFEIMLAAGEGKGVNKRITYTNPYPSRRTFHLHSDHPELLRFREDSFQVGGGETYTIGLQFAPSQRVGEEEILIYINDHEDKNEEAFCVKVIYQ

Substance: YN-myc-Nup35 (from UniProt Q8NFH5 1-326) (natural protein)
- cells with BiFC signal (Cer-NPHP4-YC [1]): 4 of 35 cells
- cells with BiFC signal (Cer-NPHP4-YC [2]): 4 of 30 cells
